Assay results from patent US20240010722A1.
Where a chain is given by its changes, count along the chain named. Blank lines part the entries; values can stand above or below the binder they belong to.

Molecular target: Insulin
Experiment: polyreactivity ELISA on insulin coat, 100 nM

Chain of Insulin (P01308 25-54, chain 1 of 2): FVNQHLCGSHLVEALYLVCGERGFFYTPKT
Chain of Insulin (P01308 90-110, chain 2 of 2): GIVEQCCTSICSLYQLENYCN

Insulin polyreactivity score: 3.79
B1: MIAB172 (antibody, V domains shown)
VH: EVQLLESGGGLVQPGGSLRLSCAASGFTFSDFWMHWVRQAPGKGLEWISYISGDSGYTNYADSVKGRFTISRDNSKNTLYLQMNSLRAEDTAVYYCARDRPTYYYMDVWGKGTTVTVSS
VL: DIQMTQSPSSLSASVGDRVTITCRASQSVSRSLAWYQQKPGKAPKLLIYAASSLQSGVPSRFSGSGSGTDFTLTISSLQPEDFATYYCQQYKSYPVTFGQGTKVEIK

Insulin polyreactivity score: 25.5
B2: MIAB134 (antibody, V domains shown)
VH: B1 VH with D31A, T102Y
VL: B1 VL
